Measurements as given in US20220073643A1 (NANJING GENSCRIPT BIOTECH, published 2022).

molecular target: human Claudin18.2 (human); assay: cell-based or functional assay

| CDC % Relative activity [%] | CDC EC50 [µg/mL] | Binder |
| --- | --- | --- |
| 55.6 | 4.7 | 409G10G6 (antibody, V domains shown) VH: DVQLVESGGGLVQPGGSRKLSCAASGFTFSGFGMHWIRQTPEKGLEWVAYISSDSRPIYYADTVKGRFTISRDNPKNTLFLQMTSLRSEDTAMYFCGRFYYGNSFDHWGQGTLVTVSA VL: DIVMTQSPSFLTVTAGEKVTLSCRSSQSLLNSGNQRNYLTWYQQKPGQPPKLLIYWASTRESGVPDRFTGSGSGTDFTLTISSVQAEDRALYYCQNAYSFPLTFGTGTKLELR |
| 109 | 2.5 | 411A6E3 (antibody, V domains shown) VH: DVQLVESGGGLVQPGGSRKLSCAASGFTFSDFGMHWIRQTPEKGLEWVAYISSGSRPIYYADTVKGRFTISRDNPKNTLFLQMTSLRSEDTAMYFCVRFYFGNSFDHWGQGTLVTVSA VL: DIVMTQSPSFLTVTAGEKVTMTCRSSQNLLNSGNLKNYLTWYQQKPGQPPKLLISWASTRESGVPDRFTGSGSGTDFTLTISSVQPEDLALYYCQNAYSFPLTFGAGTKLELK |
| 300 | 0.872 | 410A9A9 (antibody, V domains shown) VH: DVQLVESGGGLVQPGGSRKLSCAASGFTFSSFGMHWVRQAPEKGLEWVAYISSGSSPIYYADTVKGRFTISRDNPKNTLFLQMTSLRSEDTAMYFCATFYYGNSFAYWGQGTLVTVSA VL: DIVMTQSPSSLTVTAGEKVTMSCKSSQTLLNSGNQKNYLTWYQQKSGQPPKLLIYWASTRESGVPDRFTGSGSGTDFTLTISSVQAEDLAVYYCQNAYSYPVTFGSGTKVELK |
| 678 | 0.402 | 414H6G2 (antibody, V domains shown) VH: DVQLVESGGGLVQPGGSRKLSCAASGFTFSGFGMHWIRQTAEKGLEWVAYISSGSRPIYYADTVQGRFTISRDNPKNTLFLQMTSLRSEDTAMYFCARFYYGNSFDHWGQGTLVTVSA VL: DIVMTQSPSFLTVTAGEKVTMSCKSSQSLLNSGNQKNYLTWYQQKPGQPPKLLIYWASTRESGVPDRFTGSGSGTDFTLTISSVQAEDLALYYCQNAYSFPLTFGAGTKLELK |
| 87.9 | 2.97 | 410D9G2 (antibody, V domains shown) VH: DVQLVESGGGLVQPGGSRKLSCAASGFTFSGFGMHWIRQTPEKGLEWVAYISSGSRPIYYADTVQGRFTISRDNPKNTLFLQMTSLRSEDTAMYFCARFYYGNSFDHWGQGTLVTVSS VL: DIVMTQSPSFLTVTAGEKVTMSCKSSQSLLNSGNQKNYLTWYQQKPGQPPKLLIYWASTRESGVPDRFTGSGSGTDFTLTISSVQAEDLALYYCQNAYSFPLTFGAGTKLELK |
| 68.3 | 3.98 | 411B4G4 (antibody, V domains shown) VH: DVQLVESGGGLVQPGGSRKLSCAASGFTFSGFGLHWIRQTPEKGLEWVAYISSGSRPIYYADTVKGRFTISRDNPKNTLFLQMTSLRSEDTAMYFCARFYYGNSFDHWGQGTLVTVSA VL: DIVMTQSPSFLTVTAGEKVTMSCRSSQSLLNSGNQRNYLTWYQQKPGQPPKLLIYWASTRESGVPDRFTGSGSGTDFTLTISSVQAEDLALYYCQNAYSFPLTFGAGTKLELK |
| 28.5 | 9.56 | 411G12G1 (antibody, V domains shown) VH: DVQLVESGGGLVQPGGSRKLSCAASGFTFSGFGMHWIRQAPEKGLEWVAYISSGSRPIYYADTVKGRFTISRDNPKNTLFLQMTSLRSEDTAMYFCARFYYGNSFDHWGQGTLVTVSA VL: DIVMTQSPSFLTVTAGEKVTMSCKSSQSLLNSGNQKNYLTWYQQKPGQPPKLLIYWASTRESGVPDRFTGSGSGTDFTLTISSVQAEDLAVYYCQNDYSFPLTFGAGTKLELK |
| 70.9 | 3.84 | 413C12F8 (antibody, V domains shown) VH: DVQLVESGGGLVQPGGSRKLSCAASGFTFSGFGVHWIRQTPEKGLEWVAYIGSGSRPIYYADTVKGRFTISRDNPKNTLFLQMTSLRSEDTAMYFCARFYYGNSFDHWGQGTLVTVSA VL: DIVMTQSPSFLTVTAGEKVTMNCRSSQSLLNSGNQKNYLTWYQQRPGQPPKLLIYWASTRESGVPDRFTGSGSGTDFTLTISSVQAEDLALYYCQNAYSFPLTFGAGTKLELK |
| 82.2 | 3.31 | 411G3E10 (antibody, V domains shown) VH: DVQLVESGGGLVQPGGSRKLSCAASGFTFSGFGMHWIRQTPEKGLEWVAYISSGSRPIYYADTVKGRFTISRDNPKNTLFLQMTSLRSEDTAMYFCARFYYGNSFDHWGQGTLVTVSA VL: DIVMTQSPSFLTVTAGEKVTMNCRSSQSLLNSGNQKNYLTWYQQKPGQPPKLLIYWASTRESGVPDRFTGSGSGTDFTLTISSVQAEDLALYYCQNAYSFPLTFGAGTKLELK |
| 10.4 | 26.3 | 413B1C9 (antibody, V domains shown) VH: DVQLVESGGGLVQPGGSRKLSCAASGFTFSSFGMHWVRQAPEKGLEWVAYISSGSSPIYYADTVKGRFTISRDNPKNTLFLQMTSLRSEDTAMYFCARFYYGNSFDHWGQGTLVTVSA VL: DIVMTQSPSSLTVTTGEKVSMSCKSSQSLFNRGNQKSYLTWYQQKPGQPPKLLIYWASTRESGVPDRFTGSGSGTDFTLTISSVQAEDLAVYYCQNNYIYPLTFGAGTKLELK |
| 594 | 0.458 | 414A5F7 (antibody, V domains shown) VH: DVQLVESGGGLVQPGGSRKLSCAASGFTFSSFGMHWVRQAPEKGLEWVAYISSGSSPIYYADTVKGRFTISRDNPKNTLFLQMTSLRSEDTAMYFCARIYYGNSFAYWGQGTLVTVSA VL: DIVMTQSPSSLTVTAGEKVAMSCKSSQTLLNSGNQKNYLTWYQQKPGQPPKLLLYWASTRESGVPDRFTGSGSGTDFTLTISSVQAEDLAVYYCQNAYYYPLTFGSGTKLELK |
| 30.8 | 5.6 | 418B8B10 (antibody, V domains shown) VH: DVQLVESGGGLVQPGGSRKLSCAASGFTFSSFGMHWVRQAPEKGLEWVAYISSGSSPIYYTDTVKGRFTISRDNPKNTLFLQMTSLRSEDTAMYFCARFYYGNSFDHWGQGTLVTVSA VL: DIVMTQSPSSLTVTAGEKVSMSCKSSQSLFNRGNQKSYLTWYQQRPGQPPKLLIYWASTRESGVPDRFTGSGSGTDFTLTISSVQAEDLAVYYCQNNYIYPLTFGAGTKLELK |
| 207 | 0.83 | 418G6A5 (antibody, V domains shown) VH: DVQLVESGGGLVQPGGSRKLSCVASGFTFSSFGMHWVRQAPEKGLEWVAYISSGSSPMYYADTVKGRFTISRDNPKNTLFLQMTSLRSEDTAMYFCARIYYGNSFAYWGQGTLVTVSA VL: DIVMTQSPSSLTVTAGEKVTMSCKSSQSLLNSGNQKNYLTWYQQKPGQPPKLLIYWASTRESGVPDRFTGSGSGTDFTLTISSVQAEDLAVYYCQNAYSYPLTFGAGTKLELK |
| 236 | 0.73 | 418D2F9 (antibody, V domains shown) VH: DVQLVESGGGLVQPGGSRKLSCAASGFTFSSFGMHWVRQAPEKGLEWVAYINTGSSTIYYADTVKGRFTISRDNPKNTLFLQMTSLRSEDTAMYYCARIYYGNSFVYWGQGTLVTVSA VL: DIVMTQSPSSLTVTAGEKVTMSCKSSQSLLNSGNQKNYLTWYQQKPGQPPKLLIYWASTRESGVPDRFTGSGSGTDFTLTISSVQAEDLAVYYCQNDYSYPLTFGAGTKLELK |
| 755 | 0.346 | 410H6H3 (antibody, V domains shown) VH: DVLLVESGGGLVQPGGSRKLSCAASGFTFSSSGMHWVRQAPEKGLEWVAYISSGSNTIYYADTLKGRFTISRDNPKNTLFLQMTSLRSEDTAMYYCARIYYGNSFVYWGQGTLVTVSA VL: DIVMTQSPSSLTVTAGEKVIMSCKSSQSLLNSGNQKNYLTWYQQKPGQPPKMLIYWASTRESGVPDRFRGSGSGTDFTLTISSVQAEDLAVYYCQNNYYYPLTFGTGTKLALK |
| 577 | 0.472 | 412B6E4 (antibody, V domains shown) VH: DVQLVESGGGLVQPGGSRKLSCAASGFTFSSFGVHWVRQAPEKGLEWVAYISSGSSTIYYAHSVKGRFTISRDNPKNTLFLQMTSLGSEDTATYYCARFYYGNSFAYWGQGTLVTVSA VL: DIVMTQSPSSLTVTAGEKVTMSCKSSQSLLNSGNQKNYLTWYQQKPGQPPKMLIYWASTRESGVPDRFTGSGSGTDFTLTISSVQAEDLAVYYCQNAYTYPLTFGAGTRLELK |
| 600 | 0.319 | 203A6C9 (antibody, V domains shown) VH: QVQLKQSGPGLVQPSQSLSITCTVSGFSLTRYGVHWVRQSPGKGLEWLGVIWSGGNTDYNAAFISRLNIRKDNSKSQVFFKMNSLKPNDTAIYYCARAAYFGNSFDYWGQGTTLTVSS VL: DIVMTQSPSSLPVTAGEKVTMSCKSSQSLLNSGNQKNYLTWYQQKPGQPPKLLIYWASTRDSGVPDRFTGSGSGTDFTLTISSVQAEDLAVYYCQNNYIYPLTFGAGTKLELK |
| 220 | 0.784 | 416F12F3 (antibody, V domains shown) VH: DVQLVESGGGLVQPGGSRKLSCAASGFTFSSFGMHWVRQAPEKGLEWVAYISSGSSTIYYAHSVKGRFTISRDNPKNTLFLQMTSLGSEDTAMYYCARFYYGNSFAYWGQGTLVTVSA VL: DIVMTQSPSSLTVTAGEKVTLSCKSSQSLLNSGNQKNYLTWYQQKPGQPPKMLIYWASTRESGVPDRFTGSGSGTDFTLTISSVQAEDLAVYYCQNAYTYPLTFGAGTRLELK |
| 440 | 0.392 | 417A6F11 (antibody, V domains shown) VH: EVQLQQSGPELVKPGASMKISCKASGYSFTGYTMNWVKQSHGKNLEWIGLINPYNGGTSYNQKFKGKATLTVDKSSSTAYMELLSLTSEDSAVYYCARGDYWGQGTTLTVSS VL: DIVMTQSPSSLTVTAGEKVTMSCKSSQSLLNSGNQKNYLTWYQQKPGQPPKLLIYWASTRESGVPDRFTGSGSGTDFTLTISSVQAEDLAVYYCQNDYSYPTFGAGTKLELK |
| 135 | 1.42 | 201F4H6 (antibody, V domains shown) VH: QVQLKESGPGLVAPSQSLSITCTVSGFSLTSYGVSWVRQPPGKGLECLGVIWAGGNTNYNSALMSRLSISKDKSKSQVFLKMNSLQTDDTAMYYCARVYYGNAMDYWGQGTSVTVSS VL: DIVMTQSPSSLTVTAGEKVTMSCKSSQSLLNSGNQKSYLTWYQQRPGQPPKLLIYWASTRESGVPDRFTGSGSGTDFTLTISSVQAEDLAVYFCQNVYFFPFTFGSGTKLETK |
